From patent US20030158387A1 come the findings set out here.

As usually defined, the IC50 is the concentration at which inhibition is half-maximal. One may read the EC50 (read off the curve) as the concentration needed to bring the measured effect to its halfway point. High values mean weaker potency, low ones greater potency.

In test [1] the target is chemokine receptor 1 (CCR1) (UniProt P56482). The test is described as follows: competition radioligand binding, membranes of CHO-K1 cells expressing CCR1, tracer [125I]-MIP-1 alpha; mean ± SEM.
The target of test [2] is chemokine receptor 5 (CCR5) (human) (UniProt P51681).
The target is the same in test [3]. In words: competition radioligand binding, membranes of CHO-K1 cells expressing CCR5, tracer [125I]-MIP-1 beta; mean ± SEM.
Test [4] has the same target. The test is described as follows: competition radioligand binding, membranes of CHO-K1 cells expressing CCR5, tracer [125I]-MIP-1 beta.
Test [5] deals with chemokine receptor 1 (CCR1) (UniProt P56482). In words: competition radioligand binding, membranes of CHO-K1 cells expressing CCR1, tracer [125I]-MIP-1 alpha.
The target in test [6] is chemokine receptor 5 (CCR5) (human) (UniProt P51681). This is another data set of the same source.
Test [7] deals with chemokine receptor 1 (CCR1) (UniProt P56482).
Test [8] shares this target. The source holds these as a separate data set.
Test [9] has the same target. The test is described as follows: cell-based or functional assay.

RANTES, sequence (P13501 24-91): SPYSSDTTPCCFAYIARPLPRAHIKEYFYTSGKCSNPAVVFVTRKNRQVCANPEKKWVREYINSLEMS
chemokine receptor 5 (CCR5) (human), sequence (P51681 whole entry): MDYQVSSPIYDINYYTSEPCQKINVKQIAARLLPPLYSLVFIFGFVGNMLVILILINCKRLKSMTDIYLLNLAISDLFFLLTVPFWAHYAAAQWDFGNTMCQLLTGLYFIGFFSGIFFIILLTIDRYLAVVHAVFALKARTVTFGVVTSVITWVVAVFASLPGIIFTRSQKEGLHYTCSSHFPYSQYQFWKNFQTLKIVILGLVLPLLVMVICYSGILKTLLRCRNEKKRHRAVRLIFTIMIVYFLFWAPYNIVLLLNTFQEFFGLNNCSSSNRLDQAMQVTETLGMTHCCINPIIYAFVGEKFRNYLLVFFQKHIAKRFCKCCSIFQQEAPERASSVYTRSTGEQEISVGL

For AOP-RANTES (ligand), the IC50 came out at 2.67 nM in [1] and 0.0968 nM in [3]. In addition, the EC50 (aequorin luminescence, CHO-K1 cells expressing CCR5) in test [2] is 1.94 nM. The values for the IC50 (read off the curve) in test [4] and in test [5] were 0.06 nM and 4 nM, respectively. Besides, in test [6], the EC50 (read off the curve) came to 3 nM.

For NNY-RANTES (ligand), the results for the IC50 in [1] and in test [3] were 5.42 nM and 0.776 nM, respectively. This substance also registered an EC50 (aequorin luminescence, CHO-K1 cells expressing CCR5) in [2] of 1.45 nM. Further, the IC50 (read off the curve) in test [4] worked out at 0.1 nM; in test [5], 4 nM.

Turning to “RANTES (from UniProt P13501 24-91) (ligand)”, in test [7], the EC50 (read off the curve) is 10 nM. Moreover, the EC50 (aequorin luminescence, CHO-K1 cells expressing CCR1) in test [8] is 8.03 nM. The same substance registered an IC50 (read off the curve) in test [5] of 0.3 nM. The same substance came in with an EC50 of receptor activation (aequorin assay) in [9] of 6.3 nM.
